Experimental data taken from paper PMC12749989, “Conformational plasticity across phylogenetic clusters of RND multidrug efflux pumps and its impact on substrate specificity” (Nature Communications, 2025).

What was measured:
[1] = molecular target: K. pneumoniae OqxB (Klebsiella pneumoniae); experiment: cryo-EM structure; single-particle cryo-EM of AcrB or OqxB reconstituted in detergent-free salipro nanodiscs (saposinA, E. coli total lipids), 20 mM Tris pH 7.5, 150 mM NaCl
[2] = molecular target: K. pneumoniae OqxB (Klebsiella pneumoniae); experiment: crystal structure; detergent-solubilised (DDM) OqxB; sitting drop, 25 °C, 12% PEG4000, 0.2 M MgCl2, 100 mM ADA pH 6.5
[3] = molecular target: the molecule itself; experiment: cryo-EM structure; single-particle cryo-EM of DDM-solubilised AcrB; trimer composition from the classified monomers
[4] = molecular target: the molecule itself; experiment: cryo-EM structure; single-particle cryo-EM of AcrB or OqxB reconstituted in detergent-free salipro nanodiscs (saposinA, E. coli total lipids), 20 mM Tris pH 7.5, 150 mM NaCl
[5] = molecular target: the molecule itself; experiment: crystal structure; DDM-solubilised AcrB variants mixed with DARPins 1:2, excess DARPin removed by SEC (20 mM Tris pH 7.5, 150 mM NaCl, 0.03 % DDM); hanging drop, 18 °C; with 2 mM minocycline or apo

Molecule: K. pneumoniae OqxB (natural protein)
- stoichiometry N [1]: 3
- stoichiometry N [2]: 3

B1: E. coli AcrB V612W (natural protein)
chain: MPNFFIDRPIFAWVIAIIIMLAGGLAILKLPVAQYPTIAPPAVTISASYPGADAKTVQDTVTQVIEQNMNGIDNLMYMSSNSDSTGTVQITLTFESGTDADIAQVQVQNKLQLAMPLLPQEVQQQGVSVEKSSSSFLMVVGVINTDGTMTQEDISDYVAANMKDAISRTSGVGDVQLFGSQYAMRIWMNPNELNKFQLTPVDVITAIKAQNAQVAAGQLGGTPPVKGQQLNASIIAQTRLTSTEEFGKILLKVNQDGSRVLLRDVAKIELGGENYDIIAEFNGQPASGLGIKLATGANALDTAAAIRAELAKMEPFFPSGLKIVYPYDTTPFVKISIHEVVKTLVEAIILVFLVMYLFLQNFRATLIPTIAVPVVLLGTFAVLAAFGFSINTLTMFGMVLAIGLLVDDAIVVVENVERVMAEEGLPPKEATRKSMGQIQGALVGIAMVLSAVFVPMAFFGGSTGAIYRQFSITIVSAMALSVLVALILTPALCATMLKPIAKGDHGEGKKGFFGWFNRMFEKSTHHYTDSVGGILRSTGRYLVLYLIIVVGMAYLFVRLPSSFLPDEDQGVFMTMVQLPAGATQERTQKVLNEVTHYYLTKEKNNVESVFAWNGFGFAGRGQNTGIAFVSLKDWADRPGEENKVEAITMRATRAFSQIKDAMVFAFNLPAIVELGTATGFDFELIDQAGLGHEKLTQARNQLLAEAAKHPDMLTSVRPNGLEDTPQFKIDIDQEKAQALGVSINDINTTLGAAWGGSYVNDFIDRGRVKKVYVMSEAKYRMLPDDIGDWYVRAADGQMVPFSAFSSSRWEYGSPRLERYNGLPSMEILGQAAPGKSTGEAMELMEQLASKLPTGVGYDWTGMSYQERLSGNQAPSLYAISLIVVFLCLAALYESWSIPFSVMLVVPLGVIGALLAATFRGLTNDVYFQVGLLTTIGLSAKNAILIVEFAKDLMDKEGKGLIEATLDAVRMRLRPILMTSLAFILGVMPLVISTGAGSGAQNAVGTGVMGGMVTATVLAIFFVPVFFVVVRRRFSRKNEDIEHSHTVDHH
notes: Homotrimer; source: E. coli C43 (DE3) ∆acrB, purified (Ni-NTA, SEC), DDM-solubilised
- stoichiometry N [3]: 3

B2: E. coli AcrB V612F (natural protein)
chain: MPNFFIDRPIFAWVIAIIIMLAGGLAILKLPVAQYPTIAPPAVTISASYPGADAKTVQDTVTQVIEQNMNGIDNLMYMSSNSDSTGTVQITLTFESGTDADIAQVQVQNKLQLAMPLLPQEVQQQGVSVEKSSSSFLMVVGVINTDGTMTQEDISDYVAANMKDAISRTSGVGDVQLFGSQYAMRIWMNPNELNKFQLTPVDVITAIKAQNAQVAAGQLGGTPPVKGQQLNASIIAQTRLTSTEEFGKILLKVNQDGSRVLLRDVAKIELGGENYDIIAEFNGQPASGLGIKLATGANALDTAAAIRAELAKMEPFFPSGLKIVYPYDTTPFVKISIHEVVKTLVEAIILVFLVMYLFLQNFRATLIPTIAVPVVLLGTFAVLAAFGFSINTLTMFGMVLAIGLLVDDAIVVVENVERVMAEEGLPPKEATRKSMGQIQGALVGIAMVLSAVFVPMAFFGGSTGAIYRQFSITIVSAMALSVLVALILTPALCATMLKPIAKGDHGEGKKGFFGWFNRMFEKSTHHYTDSVGGILRSTGRYLVLYLIIVVGMAYLFVRLPSSFLPDEDQGVFMTMVQLPAGATQERTQKVLNEVTHYYLTKEKNNVESVFAFNGFGFAGRGQNTGIAFVSLKDWADRPGEENKVEAITMRATRAFSQIKDAMVFAFNLPAIVELGTATGFDFELIDQAGLGHEKLTQARNQLLAEAAKHPDMLTSVRPNGLEDTPQFKIDIDQEKAQALGVSINDINTTLGAAWGGSYVNDFIDRGRVKKVYVMSEAKYRMLPDDIGDWYVRAADGQMVPFSAFSSSRWEYGSPRLERYNGLPSMEILGQAAPGKSTGEAMELMEQLASKLPTGVGYDWTGMSYQERLSGNQAPSLYAISLIVVFLCLAALYESWSIPFSVMLVVPLGVIGALLAATFRGLTNDVYFQVGLLTTIGLSAKNAILIVEFAKDLMDKEGKGLIEATLDAVRMRLRPILMTSLAFILGVMPLVISTGAGSGAQNAVGTGVMGGMVTATVLAIFFVPVFFVVVRRRFSRKNEDIEHSHTVDHH
notes: Homotrimer; source: E. coli C43 (DE3) ∆acrB, purified (Ni-NTA, SEC); DDM-solubilised, in cyclohexyl-n-hexyl-β-D-maltoside (apo crystals) or reconstituted in salipro nanodiscs
- stoichiometry N [4]: 3

B3: E. coli AcrB V612N (natural protein)
chain: MPNFFIDRPIFAWVIAIIIMLAGGLAILKLPVAQYPTIAPPAVTISASYPGADAKTVQDTVTQVIEQNMNGIDNLMYMSSNSDSTGTVQITLTFESGTDADIAQVQVQNKLQLAMPLLPQEVQQQGVSVEKSSSSFLMVVGVINTDGTMTQEDISDYVAANMKDAISRTSGVGDVQLFGSQYAMRIWMNPNELNKFQLTPVDVITAIKAQNAQVAAGQLGGTPPVKGQQLNASIIAQTRLTSTEEFGKILLKVNQDGSRVLLRDVAKIELGGENYDIIAEFNGQPASGLGIKLATGANALDTAAAIRAELAKMEPFFPSGLKIVYPYDTTPFVKISIHEVVKTLVEAIILVFLVMYLFLQNFRATLIPTIAVPVVLLGTFAVLAAFGFSINTLTMFGMVLAIGLLVDDAIVVVENVERVMAEEGLPPKEATRKSMGQIQGALVGIAMVLSAVFVPMAFFGGSTGAIYRQFSITIVSAMALSVLVALILTPALCATMLKPIAKGDHGEGKKGFFGWFNRMFEKSTHHYTDSVGGILRSTGRYLVLYLIIVVGMAYLFVRLPSSFLPDEDQGVFMTMVQLPAGATQERTQKVLNEVTHYYLTKEKNNVESVFANNGFGFAGRGQNTGIAFVSLKDWADRPGEENKVEAITMRATRAFSQIKDAMVFAFNLPAIVELGTATGFDFELIDQAGLGHEKLTQARNQLLAEAAKHPDMLTSVRPNGLEDTPQFKIDIDQEKAQALGVSINDINTTLGAAWGGSYVNDFIDRGRVKKVYVMSEAKYRMLPDDIGDWYVRAADGQMVPFSAFSSSRWEYGSPRLERYNGLPSMEILGQAAPGKSTGEAMELMEQLASKLPTGVGYDWTGMSYQERLSGNQAPSLYAISLIVVFLCLAALYESWSIPFSVMLVVPLGVIGALLAATFRGLTNDVYFQVGLLTTIGLSAKNAILIVEFAKDLMDKEGKGLIEATLDAVRMRLRPILMTSLAFILGVMPLVISTGAGSGAQNAVGTGVMGGMVTATVLAIFFVPVFFVVVRRRFSRKNEDIEHSHTVDHH
notes: as for B1
- stoichiometry N [5]: 3
